In patent publication US20240301071A1 (Alector, published 2024):
Residue numbers refer to the chain shown, from its start. One block for each binder: values may come before it.

Tests used:
[1] = target: T1, human SIRPA on human macrophages (primary monocyte-derived macrophages; U937 line) (human, UniProt P78324 31-504); assay: cell-based or functional assay
[2] = target: T1, human SIRPA on human macrophages …; assay: cell-based or functional assay; remark: listed apart in the source
[3] = target: T2, histidine-tagged human SIRPA v1 (Novoprotein) (human, UniProt P78324 31-370, limits assumed); assay: BLI (Octet), antibody on anti-human IgG Fc sensor, His-huSIRPA in solution, single-curve 1:1 fit
T2 construct: bought, soluble; also called huSIRPA; soluble huSIRPA; not shown: histidine tag
T2 sequence (P78324 31-370 limits assumed): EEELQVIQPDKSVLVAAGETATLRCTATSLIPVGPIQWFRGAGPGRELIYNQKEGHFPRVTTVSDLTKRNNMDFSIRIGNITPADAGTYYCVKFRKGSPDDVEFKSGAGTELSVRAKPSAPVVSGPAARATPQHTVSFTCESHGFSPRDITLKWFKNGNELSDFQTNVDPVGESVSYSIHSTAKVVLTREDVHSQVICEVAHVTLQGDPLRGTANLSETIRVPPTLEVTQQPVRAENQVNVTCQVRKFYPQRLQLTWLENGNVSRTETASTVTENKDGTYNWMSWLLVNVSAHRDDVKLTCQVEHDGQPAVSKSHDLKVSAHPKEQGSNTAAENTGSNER
Method: (§1) Initial characterization of affinity matured anti-SIRPA antibodies disclosed herein comprised acquiring antigen affinity measurements using bio-layer interferometry (BLI) on a Pall ForteBio Octet RED96 instrument. Immobilized anti-mouse IgG Fc or anti-human IgG Fc antibodies captured murine anti-SIRPA 3F79 antibody and humanized anti-SIRPA 3F79 antibody on biosensors, respectively. Single cycle kinetics were performed with 25 nM huSIRPA [which variant?] or 50 nM huSIRPB 1 flowed over captured antibody 3F79 to record traces. Data analysis was performed using ForteBio Data Analysis Software, version 9.0. Standard kinetic buffer (PBS, 0.100 BSA, 0.02% Tween-20, pH 7.2) was used for the assay and for preparing reagents. […] 50 nM of histidine-tagged human SIRPA vi or human SIRPB1 (Novoprotein, Summit, NJ, USA) were then bound to the captured anti-SIRPA antibody coated surface (200 s association time, 900 s dissociation time). […] Single-curve kinetic analysis was performed using a 1:1 interaction model to extract association and dissociation rate constants (ka and kd, respectively) for each antibody. Affinity constants (KD) were calculated from the ratio kd/ka.

[4] = target: T3, human SIRPA v1 on BWZ cells (BWZ-huSIRPA) (human, UniProt P78324 31-504); assay: flow cytometry titration on BWZ-huSIRPA cells, 4 C
T3 construct: also called BWZ cells overexpressing human SIRPA; BWZ-huSIRPA v1 cells
T3 sequence (P78324 31-504): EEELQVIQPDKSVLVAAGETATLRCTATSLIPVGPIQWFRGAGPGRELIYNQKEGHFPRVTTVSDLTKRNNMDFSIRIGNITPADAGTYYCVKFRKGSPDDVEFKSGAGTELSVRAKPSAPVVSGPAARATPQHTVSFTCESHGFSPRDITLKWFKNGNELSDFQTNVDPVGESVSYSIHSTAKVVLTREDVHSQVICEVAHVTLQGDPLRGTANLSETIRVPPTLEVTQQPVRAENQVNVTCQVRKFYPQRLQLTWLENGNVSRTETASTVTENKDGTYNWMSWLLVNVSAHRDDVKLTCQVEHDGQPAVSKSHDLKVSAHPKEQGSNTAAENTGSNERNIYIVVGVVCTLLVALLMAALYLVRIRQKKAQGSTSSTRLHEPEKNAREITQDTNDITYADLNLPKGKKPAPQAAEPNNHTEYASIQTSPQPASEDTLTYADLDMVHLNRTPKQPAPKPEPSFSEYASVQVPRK
Method: After addition of fluorescently labeled secondary antibody and brief washing steps, MFI values as a function of titrated antibody concentration was recorded via FACS analysis. […] Receptor bound antibodies were detected by staining cells with anti-human IgG PE secondary antibody. Curves were fit using nonlinear regression analysis with Graphpad Prism 6 software.

[5] = target: T2, histidine-tagged human SIRPA v1 …; assay: BLI (Octet)
Method: as §1

[6] = target: T1, human SIRPA on human macrophages …; assay: cell-based or functional assay; remark: listed apart in the source
[7] = target: T1, human SIRPA on human macrophages …; assay: cell-based or functional assay; remark: listed apart in the source

T1 sequence (P78324 31-370): as the sequence (P78324 31-370 limits assumed) above

B1: 3F9-22-huIgG1 PS (antibody)
heavy: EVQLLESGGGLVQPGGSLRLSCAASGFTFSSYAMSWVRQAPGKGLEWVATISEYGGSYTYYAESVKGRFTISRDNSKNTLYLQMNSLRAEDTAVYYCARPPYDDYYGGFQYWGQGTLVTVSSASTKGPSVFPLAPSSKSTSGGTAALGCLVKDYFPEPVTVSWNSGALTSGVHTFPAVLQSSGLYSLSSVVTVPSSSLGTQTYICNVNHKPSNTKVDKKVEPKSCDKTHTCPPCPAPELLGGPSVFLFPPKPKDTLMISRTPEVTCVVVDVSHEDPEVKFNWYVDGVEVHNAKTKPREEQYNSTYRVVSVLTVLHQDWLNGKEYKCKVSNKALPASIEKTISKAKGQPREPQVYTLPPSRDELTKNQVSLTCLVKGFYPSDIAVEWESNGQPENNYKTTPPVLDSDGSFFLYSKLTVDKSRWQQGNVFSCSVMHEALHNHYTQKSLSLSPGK
light: DIQLTQSPSSLSASVGDRVTITCRASKSVSSGGYSYMHWYQQKPGKAPKLLIYLASNLESGVPSRFSGSGSGTDFTLTISSVQPEDFATYYCQHNRELPVTFGQGTKLEIKRTVAAPSVFIFPPSDEQLKSGTASVVCLLNNFYPREAKVQWKVDNALQSGNSQESVTEQDSKDSTYSLSSTLTLSKADYEKHKVYACEVTHQGLSSPVTKSFNRGEC
EC50 (nM), phagocytosis of A375 cells by primary human macrophages [1]: 0.114 nM
Max, fold increase in phagocytosis over baseline activity [1]: 2.07 fold
IC50 (nM), SIRPA downregulation on human monocyte-derived macrophages [2]: 0.047 nM
Max % DR, SIRPA, human monocyte-derived macrophages [2]: 73.8%

B2: 3F9-1 (antibody, human IgG1, V domains shown)
VH: EVQLLESGGGLVQPGGSLRLSCAASGFTFSSYAMSWVRQAPGKGLEWVATISEYGGSYTYYAESVKGRFTISRDNSKNTLYLQMNSLRAEDTAVYYCARPPYDDYYGGFAYWGQGTLVTVSS
VL: DIQLTQSPSSLSASVGDRVTITCRASKSVSSGGYSYMHWYQQKPGKAPKLLIYLASNLESGVPSRFSGSGSGTDFTLTISSVQPEDFATYYCQHNRELPSTFGQGTKLEIK
notes: also called mAb 3F9-1
Kd [3]: 2.09 nM
koff [3]: 0.000222 s⁻¹
kon [3]: 106000 M⁻¹ s⁻¹

B8: 3F9-11 (antibody, human IgG1, V domains shown)
VH: B2 VH with A110R
VL: B2 VL with S100I
notes: also called mAb 3F9-11
Kd [3]: 1.43 nM
koff [3]: 0.000192 s⁻¹
kon [3]: 134000 M⁻¹ s⁻¹

B9: 3F9-21 (antibody, human IgG1, V domains shown)
VH: B2 VH with A110Q
VL: B2 VL with S100T
notes: also called mAb 3F9-21
Kd [3]: 1.03 nM
koff [3]: 0.000152 s⁻¹
kon [3]: 148000 M⁻¹ s⁻¹
EC50 [4]: 0.64 nM

B10: 3F9-5 (antibody, human IgG1, V domains shown)
VH: B2 VH
VL: B2 VL with S100T
notes: also called mAb 3F9-5
Kd [3]: 2.95 nM
koff [3]: 0.000276 s⁻¹
kon [3]: 93600 M⁻¹ s⁻¹

B14: 3F9-24 (antibody, human IgG1, V domains shown)
VH: B2 VH with A110Q
VL: B2 VL with S100G
notes: also called mAb 3F9-24
Kd [3]: 1.07 nM
koff [3]: 0.000155 s⁻¹
kon [3]: 144000 M⁻¹ s⁻¹

B15: 3F9-7 (antibody, human IgG1, V domains shown)
VH: B2 VH
VL: B2 VL with S100A
notes: also called mAb 3F9-7
Kd [3]: 1.81 nM
koff [3]: 0.00018 s⁻¹
kon [3]: 99200 M⁻¹ s⁻¹

B16: 3F9-20 (antibody, human IgG1, V domains shown)
VH: B2 VH with A110Q
VL: B2 VL with S100P
notes: also called mAb 3F9-20
Phagocytosis, fold increase over baseline activity [6]: 1.62 fold
SIRPA IC50 (nM), downregulation on human primary macrophages [6]: 0.0283 nM
SIRPA Max % DR, human primary macrophages [6]: 90%
fold increase in affinity relative to parental h3F9 [5]: ~10 fold
Kd [3]: 0.85 nM
koff [3]: 0.000128 s⁻¹
kon [3]: 150000 M⁻¹ s⁻¹
EC50 [4]: 0.49 nM
SIRPA IC50 (nM), downregulation on U937 cells [7]: 0.152 nM
SIRPA Max % DR, U937 cells [7]: 75%

B17: 3F9-16 (antibody, human IgG1, V domains shown)
VH: B2 VH with A110R
VL: B2 VL with S100G
notes: also called mAb 3F9-16
Kd [3]: 1.27 nM
koff [3]: 0.000151 s⁻¹
kon [3]: 119000 M⁻¹ s⁻¹

B18: 3F9-8 (antibody, human IgG1, V domains shown)
VH: B2 VH
VL: B2 VL with S100G
notes: also called mAb 3F9-8
Kd [3]: 3.6 nM
koff [3]: 0.000276 s⁻¹
kon [3]: 76600 M⁻¹ s⁻¹

B19: 3F9-6 (antibody, human IgG1, V domains shown)
VH: B2 VH
VL: B2 VL with S100V
notes: also called mAb 3F9-6
Kd [3]: 1.65 nM
koff [3]: 0.000192 s⁻¹
kon [3]: 116000 M⁻¹ s⁻¹

B20: 3F9-13 (antibody, human IgG1, V domains shown)
VH: B2 VH with A110R
VL: B2 VL with S100T
notes: also called mAb 3F9-13
Kd [3]: 1.38 nM
koff [3]: 0.000201 s⁻¹
kon [3]: 146000 M⁻¹ s⁻¹

B21: 3F9-19 (antibody, human IgG1, V domains shown)
VH: B2 VH with A110Q
VL: B2 VL with S100I
notes: also called mAb 3F9-19
Kd [3]: 1.29 nM
koff [3]: 0.000181 s⁻¹
kon [3]: 141000 M⁻¹ s⁻¹

B23: 3F9-18 (antibody, human IgG1, V domains shown)
VH: B2 VH with A110Q
VL: B2 VL
notes: also called mAb 3F9-18
Phagocytosis, fold increase over baseline activity [6]: 1.52 fold
SIRPA IC50 (nM), downregulation on human primary macrophages [6]: 0.0174 nM
SIRPA Max % DR, human primary macrophages [6]: 90%
fold increase in affinity relative to parental h3F9 [5]: ~10 fold
Kd [3]: 0.419 nM
koff [3]: 5.74e-05 s⁻¹
kon [3]: 137000 M⁻¹ s⁻¹
EC50 [4]: 0.51 nM
SIRPA IC50 (nM), downregulation on U937 cells [7]: 2.19 nM
SIRPA Max % DR, U937 cells [7]: 71%

Second part, the binder after the results:

Kd [3]: 1.06 nM
koff [3]: 0.000162 s⁻¹
kon [3]: 153000 M⁻¹ s⁻¹
EC50 [4]: 0.96 nM
B3: 3F9-25 (antibody, human IgG1, V domains shown)
VH: B2 VH with A110Q
VL: B2 VL with S100W
notes: also called mAb 3F9-25

Kd [3]: 1.51 nM
koff [3]: 0.000201 s⁻¹
kon [3]: 134000 M⁻¹ s⁻¹
B4: 3F9-10 (antibody, human IgG1, V domains shown)
VH: B2 VH with A110R
VL: B2 VL
notes: also called mAb 3F9-10

Kd [3]: 2.06 nM
koff [3]: 0.000222 s⁻¹
kon [3]: 108000 M⁻¹ s⁻¹
B5: 3F9-2 (antibody, human IgG1, V domains shown)
VH: B2 VH
VL: B2 VL with S100C
notes: also called mAb 3F9-2

Kd [3]: 3.38 nM
koff [3]: 0.000302 s⁻¹
kon [3]: 89400 M⁻¹ s⁻¹
B6: 3F9-9 (antibody, human IgG1, V domains shown)
VH: B2 VH
VL: B2 VL with S100W
notes: also called mAb 3F9-9

fold increase in affinity relative to parental h3F9 [5]: ~10 fold
Kd [3]: 0.429 nM
koff [3]: 5.96e-05 s⁻¹
kon [3]: 139000 M⁻¹ s⁻¹
B7: 3F9-12 (antibody, human IgG1, V domains shown)
VH: B2 VH with A110R
VL: B2 VL with S100P
notes: also called mAb 3F9-12

Kd [3]: 1.79 nM
koff [3]: 0.000203 s⁻¹
kon [3]: 113000 M⁻¹ s⁻¹
B11: 3F9-4 (antibody, human IgG1, V domains shown)
VH: B2 VH
VL: B2 VL with S100P
notes: also called mAb 3F9-4

fold increase in affinity relative to parental h3F9 [5]: ~10 fold
Kd [3]: 0.539 nM
koff [3]: 9.11e-05 s⁻¹
kon [3]: 169000 M⁻¹ s⁻¹
B12: 3F9-23 (antibody, human IgG1, V domains shown)
VH: B2 VH with A110Q
VL: B2 VL with S100A
notes: also called mAb 3F9-23

Kd [3]: 1.7 nM
koff [3]: 0.000238 s⁻¹
kon [3]: 140000 M⁻¹ s⁻¹
EC50 [4]: 0.61 nM
B13: 3F9-17 (antibody, human IgG1, V domains shown)
VH: B2 VH with A110R
VL: B2 VL with S100W
notes: also called mAb 3F9-17

Kd [3]: 6.28 nM
koff [3]: 0.000362 s⁻¹
kon [3]: 57600 M⁻¹ s⁻¹
B22: 3F9-15 (antibody, human IgG1, V domains shown)
VH: B2 VH with A110R
VL: B2 VL with S100A
notes: also called mAb 3F9-15

Kd [3]: 4.43 nM
koff [3]: 0.000416 s⁻¹
kon [3]: 93900 M⁻¹ s⁻¹
B24: 3F9-3 (antibody, human IgG1, V domains shown)
VH: B2 VH
VL: B2 VL with S100I
notes: also called mAb 3F9-3
